Consider two proteins from doi:10.1101/2024.02.27.582255 (bioRxiv, 2024).

The data set deals with the molecule itself. Kind of data set: ThT fluorescence + TEM.

Ends that are not written are not given here. * marks the point of attachment. For = O=C*

For the protein For-MEFVAKLFKFFKDLLGKFLGNN [formylated wild-type phenol soluble modulin α3 (f-WT PSMα3)], the binding result was “binds”.

Turning to MEFVAKLFKFFKDLLGKFLGNN [deformylated wild-type phenol soluble modulin α3 (df-WT PSMα3)], the binding result was “binds”.
